Results published in the supplement of paper PMC10567573.

B1: INTS3 (parent)
chain: YPPLEGHVRQGVFSSLNHIVEKRV
B2: TMEM106C (parent)
chain: FTGRDSITCLTCQGTGYIPTEQVN

Variants of: B1
Experiment: protein stability index of a GFP-peptide fusion (GPS, HEK-293T) (PSI 1-6); higher = more stable
Conditions: c terminus: a fixed tail appended
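Note: lentivirally expressed fusions sorted by FACS into six bins by GFP to DsRed ratio, PSI derived from sequencing read proportions per bin multiplied by bin number.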

Protein stability index: each site, then its substitutions
V8: W 1.78 | S 3 | M 2.46 | C 2.86 | K 2.84 | Y 2.21 | L 2.13 | D 3.25 | Q 2.85 | G 2.19 | F 2.23 | R 2.75 | I 2.38
G11: W 1.34 | P 3.3 | Y 1.85 | N 2.29 | E 2.88 | T 2.27 | M 1.79 | V 2.33 | A 2.31
E5: L 2.14 | K 2.1 | T 1.96 | P 2.14 | F 1.66 | C 2.08 | G 3.59 | W 1.9 | Q 2.02 | D 3.54 | N 2.05 | V 1.49 | A 2.52 | S 1.84 | Y 1.87 | M 2.24
S14: M 2.07 | P 2.22 | T 2.56 | N 2.41 | R 3.27
L16: G 3.18 | S 2.49 | R 4.03 | W 2.1 | M 2.39 | T 2.77 | V 3.1 | E 3.65 | Q 3.01 | A 3.33
S15: D 2.95 | R 2.12 | K 2.31 | Q 2.28 | C 1.69 | E 2.17 | G 2.58 | Y 1.33
P2: V 1.36 | K 2.49 | N 1.82 | T 1.6 | C 1.78 | E 3.54 | H 1.82 | R 3.48
V24: L 2.78 | F 1.99 | W 2.68 | S 2.58 | D 3.16 | N 2.83 | P 2.74 | C 2.01 | K 2.4 | Q 2.57
E21: Y 2.23 | L 2.29 | Q 1.79 | D 3.35 | C 2.23 | V 2.48 | P 2.26
R23: H 2.4 | T 2.53 | E 2.68 | K 2.7 | I 2.17 | S 2.67 | M 1.7 | G 2.2 | V 1.85
G6: K 2.13 | M 2.51 | L 2.06 | W 2.65 | T 3.99 | S 2.73 | I 1.76 | P 2.76 | Y 2.38 | N 2.86
H7: I 2.21 | D 2.79 | V 2.37 | A 2.68 | T 2.56 | Y 1.47 | S 2.97
K22: Y 1.34 | F 3.12 | S 2.09 | G 1.92 | E 2.63 | P 3.01
P3: E 2.86 | W 1.49 | N 2.04 | R 2.63 | I 3.38 | T 2.4 | H 2.9 | M 2.67 | Y 2.08
I19: L 1.83 | H 2.65 | G 2.57 | W 3.41 | M 3.33 | F 2.31 | V 2.52 | N 3.23 | P 2.47 | K 2.37 | R 3.04 | T 2.88
V20: Y 2.27 | L 2.2 | D 3.13 | I 2.04 | Q 2.72 | S 2.29 | R 2.9
H18: A 1.86 | Q 2.76 | I 1.99 | R 3.42 | V 1.36 | P 3.04 | Y 1.83 | N 2.78 | L 1.77 | F 1.97 | W 1.39
N17: A 2.48 | P 2.4 | C 1.86 | Q 2.34 | G 2.46 | Y 1.71 | S 2.29 | R 2.44
L4: Y 1.83 | Q 2.74 | C 2.21 | A 2.7 | W 2.91 | F 3.06 | S 2.58 | G 1.35 | D 2.46
F13: C 2.98 | R 3.32 | S 3.65 | A 3.55 | E 3.99 | V 3.7 | M 3.36 | I 3.6 | G 3.33 | Q 3.16 | D 4.31
R9: E 3.52 | Q 3.28 | W 1.72 | I 1.38 | L 2.07 | Y 1.92 | F 2.09 | P 2.77 | T 2.13 | N 2.75 | M 2.47
Y1: N 4.12 | T 3.94 | H 4.07 | L 3.53 | M 3.59 | Q 3.48 | D 3.85
Q10: I 1.62 | F 2.62 | N 1.96 | G 2.82 | M 1.98 | W 1.49 | L 1.72
V12: Q 3.95 | S 2.11 | N 3.15 | L 3.31 | E 3.46 | F 2.69

Variants of: B2
Experiment: as above
Conditions: c terminus: a fixed tail appended

Protein stability index: each site, then its substitutions
Q22: T 2.2 | V 2.16 | N 2.26 | M 2.42 | G 2.84 | S 1.79 | H 1.47 | C 2 | W 1.88 | R 2.13 | E 1.73 | K 1.85 | D 1.86 | A 2.07 | F 1.85 | P 1.73 | L 2.52 | I 1.95 | Y 1.9
T20: F 1.89 | R 2.27 | M 1.93 | Q 2.65 | C 1.83 | E 1.66 | W 1.71 | N 1.8 | K 1.92 | L 2.19 | G 1.45 | V 2.23 | I 1.99 | D 2.56 | Y 2.17 | S 2.07 | H 1.92 | P 1.74 | A 2.11
N24: E 2.47 | K 2.33 | H 2.07 | G 2.29 | L 1.91 | D 2.21 | S 2.27 | C 2.25 | M 1.84 | P 1.76 | Y 2.11 | F 1.92 | R 2.37 | A 1.89 | W 3.36 | V 2.24 | Q 1.96 | I 1.44 | T 2
V23: H 2.11 | S 1.51 | Q 1.72 | E 1.79 | A 2.21 | G 1.75 | P 1.89 | R 2.13 | T 2.09 | Y 1.79 | N 2.12 | K 2.3 | L 1.7 | F 1.73 | W 1.87 | C 2.25 | M 1.88 | I 1.47 | D 1.54
I18: V 1.64 | T 3.01 | W 1.86 | Y 1.68
P19: N 1.96 | R 1.26 | Q 2.05 | T 2.21 | C 2.29 | A 2.04 | Y 1.78 | D 1.76 | S 2.23 | W 2.29 | E 2.02 | L 2.29 | K 2 | H 2.35 | M 2.15 | V 2.67 | I 1.84 | F 2.43 | G 1.63
E21: G 1.76 | L 2.03 | K 1.65 | I 2.16 | M 1.75 | H 1.79 | A 1.79 | V 2.59 | Q 1.94 | T 2.08 | N 2.39 | F 1.22 | Y 2.67 | R 2.03 | C 3.11 | D 1.82 | S 1.94 | P 2.2 | W 1.84
